# Reference: patent US20260265379A1
# Target: BTN3A expressed at the cell surface (human), O00481
# Experiment: cell-based or functional assay
# BTN3A expressed at the cell surface (human), O00481, sequence (O00481 30-513): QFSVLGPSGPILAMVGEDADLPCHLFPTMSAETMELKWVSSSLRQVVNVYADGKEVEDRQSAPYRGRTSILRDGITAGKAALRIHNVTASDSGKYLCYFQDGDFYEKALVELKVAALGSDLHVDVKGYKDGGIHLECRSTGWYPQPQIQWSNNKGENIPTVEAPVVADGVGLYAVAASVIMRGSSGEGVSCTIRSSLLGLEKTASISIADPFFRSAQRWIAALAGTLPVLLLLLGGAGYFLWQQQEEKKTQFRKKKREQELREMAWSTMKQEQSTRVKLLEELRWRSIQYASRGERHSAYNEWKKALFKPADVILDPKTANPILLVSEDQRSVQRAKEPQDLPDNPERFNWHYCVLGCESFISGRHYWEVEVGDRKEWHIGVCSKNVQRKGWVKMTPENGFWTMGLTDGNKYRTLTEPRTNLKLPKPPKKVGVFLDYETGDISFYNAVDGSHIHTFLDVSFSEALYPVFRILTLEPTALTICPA
Jurkat-Vy9Vo2 TCR MOP activation at 0.5 nM (fold-change to medium),Jurkat-Vy9Vo2 TCR MOP activation at 5 nM (fold-change to medium),Binder
6,4.2,bsAb005 (bispecific antibody) heavy: QVQLVQSGAEVKKPGASVKLSCKASGYIFTRYYMYWVKQRPGQGLEWIGEINPNNGGTKFNEKFKNRATLTVDKSISTAYMELSRLRSDDTAVYYCSREDDYDGTPFAMDYWGQGTLVTVSSASTKGPSVFPLAPSSKSTSGGTAALGCLVKDYFPEPVTVSWNSGALTSGVHTFPAVLQSSGLYSLSSVVTVPSSSLGTQTYICNVNHKPSNTKVDKRVEPKSCDKTHTCPPCPAPEFEGGPSVFLFPPKPKDTLMISRTPEVTCVVVDVSHEDPEVKFNWYVDGVEVHNAKTKPREEQYNSTYRVVSVLTVLHQDWLNGKEYKCKVSNKALPASIEKTISKAKGQPREPQVYTLPPSREEMTKNQVSLTCLVKGFYPSDIAVEWESNGQPENNYKTTPPVLDSDGSFFLYSKLTVDKSRWQQGNVFSCSVMHEALHNHYTQKSLSLSPGGGGGSGGGGSGGGGSGGGGSEIVLTQSPATLSLSPGERATLSCRASKGVSTSGYSYLHWYQQKPGQAPRLLIYLASYLESGVPARFSGSGSGTDFTLTISSLEPEDFAVYYCQHSRDLPLTFGGGTKVEIKGGGGSGGGGSGGGGSGGGGSQVQLVQSGVEVKKPGASVKVSCKASGYTFTNYYMYWVRQAPGQGLEWMGGINPSNGGTNFNEKFKNRVTLTTDSSTTTAYMELKSLQFDDTAVYYCARRDYRFDMGFDYWGQGTTVTVSS light: not shown
1.1,1,bsAb020 (bispecific antibody) heavy: DIQMTQSPSSLSASVGDRVTITCHASQNINVWLSWYQQKPGKAPKLLIYKASNLHTGVPSRFTGSGSGTDFTFTISSLQPEDIATYYCQQGQTYPYTFGQGTKLEIKGGGGSGGGGSGGGGSGGGGSQVQLVQSGAEVKKPGASVKLSCKASGYIFTRYYMYWVKQRPGQGLEWIGEINPNNGGTKFNEKFKNRATLTVDKSISTAYMELSRLRSDDTAVYYCSREDDYDGTPFAMDYWGQGTLVTVSSGGGGSGGGGSGGGGSGGGGSEVQLVESGGGLVQPGGSLRLSCAASGFTFSRYWMSWVRQAPGKGLEWVANIKQDGSEKYYVDSVKGRFTISRDNAKNSLYLQMNSLRAEDTAVYYCAREGGWFGELAFDYWGQGTLVTVSSASTKGPSVFPLAPSSKSTSGGTAALGCLVKDYFPEPVTVSWNSGALTSGVHTFPAVLQSSGLYSLSSVVTVPSSSLGTQTYICNVNHKPSNTKVDKRVEPKSCDKTHTCPPCPAPEFEGGPSVFLFPPKPKDTLMISRTPEVTCVVVDVSHEDPEVKFNWYVDGVEVHNAKTKPREEQYNSTYRVVSVLTVLHQDWLNGKEYKCKVSNKALPASIEKTISKAKGQPREPQVYTLPPSREEMTKNQVSLTCLVKGFYPSDIAVEWESNGQPENNYKTTPPVLDSDGSFFLYSKLTVDKSRWQQGNVFSCSVMHEALHNHYTQKSLSLSPG light: EIVLTQSPGTLSLSPGERATLSCRASQRVSSSYLAWYQQKPGQAPRLLIYDASSRATGIPDRFSGSGSGTDFTLTISRLEPEDFAVYYCQQYGSLPWTFGQGTKVEIKRTVAAPSVFIFPPSDEQLKSGTASVVCLLNNFYPREAKVQWKVDNALQSGNSQESVTEQDSKDSTYSLSSTLTLSKADYEKHKVYACEVTHQGLSSPVTKSFNRGEC
1,1,bsAb024 (bispecific antibody) heavy: QVQLVQSGAEVKKPGASVKLSCKASGYIFTRYYMYWVKQRPGQGLEWIGEINPNNGGTKFNEKFKNRATLTVDKSISTAYMELSRLRSDDTAVYYCSREDDYDGTPFAMDYWGQGTLVTVSSGGGGSGGGGSGGGGSGGGGSDIQMTQSPSSLSASVGDRVTITCHASQNINVWLSWYQQKPGKAPKLLIYKASNLHTGVPSRFTGSGSGTDFTFTISSLQPEDIATYYCQQGQTYPYTFGQGTKLEIKGGGGSGGGGSGGGGSGGGGSEVQLVESGGGLVQPGGSLRLSCAASGFTFSRYWMSWVRQAPGKGLEWVANIKQDGSEKYYVDSVKGRFTISRDNAKNSLYLQMNSLRAEDTAVYYCAREGGWFGELAFDYWGQGTLVTVSSASTKGPSVFPLAPSSKSTSGGTAALGCLVKDYFPEPVTVSWNSGALTSGVHTFPAVLQSSGLYSLSSVVTVPSSSLGTQTYICNVNHKPSNTKVDKRVEPKSCDKTHTCPPCPAPEFEGGPSVFLFPPKPKDTLMISRTPEVTCVVVDVSHEDPEVKFNWYVDGVEVHNAKTKPREEQYNSTYRVVSVLTVLHQDWLNGKEYKCKVSNKALPASIEKTISKAKGQPREPQVYTLPPSREEMTKNQVSLTCLVKGFYPSDIAVEWESNGQPENNYKTTPPVLDSDGSFFLYSKLTVDKSRWQQGNVFSCSVMHEALHNHYTQKSLSLSPG light: EIVLTQSPGTLSLSPGERATLSCRASQRVSSSYLAWYQQKPGQAPRLLIYDASSRATGIPDRFSGSGSGTDFTLTISRLEPEDFAVYYCQQYGSLPWTFGQGTKVEIKRTVAAPSVFIFPPSDEQLKSGTASVVCLLNNFYPREAKVQWKVDNALQSGNSQESVTEQDSKDSTYSLSSTLTLSKADYEKHKVYACEVTHQGLSSPVTKSFNRGEC
0.9,0.9,"bsAb036 (bispecific antibody, not shown: small tags and cut ends; a dimerising Fc or GST) heavy (part 1 of 2): EVQLVESGGGLVQPGGSLRLSCAASGFTFSRYWMSWVRQAPGKGLEWVANIKQDGSEKYYVDSVKGRFTISRDNAKNSLYLQMNSLRAEDTAVYYCAREGGWFGELAFDYWGQGTLVTVSS heavy (part 2 of 2): GGGGSGGGGSGGGGSGGGGSQVQLVQSGAEVKKPGASVKLSCKASGYIFTRYYMYWVKQRPGQGLEWIGEINPNNGGTKFNEKFKNRATLTVDKSISTAYMELSRLRSDDTAVYYCSREDDYDGTPFAMDYWGQGTLVTVSSGGGGSGGGGSGGGGSGGGGSDIQMTQSPSSLSASVGDRVTITCHASQNINVWLSWYQQKPGKAPKLLIYKASNLHTGVPSRFTGSGSGTDFTFTISSLQPEDIATYYCQQGQTYPYTFGQGTKLEIK heavy: GGGGSGGGGSGGGGSGGGGSQVQLVQSGAEVKKPGASVKLSCKASGYIFTRYYMYWVKQRPGQGLEWIGEINPNNGGTKFNEKFKNRATLTVDKSISTAYMELSRLRSDDTAVYYCSREDDYDGTPFAMDYWGQGTLVTVSSGGGGSGGGGSGGGGSGGGGSDIQMTQSPSSLSASVGDRVTITCHASQNINVWLSWYQQKPGKAPKLLIYKASNLHTGVPSRFTGSGSGTDFTFTISSLQPEDIATYYCQQGQTYPYTFGQGTKLEIK light: EIVLTQSPGTLSLSPGERATLSCRASQRVSSSYLAWYQQKPGQAPRLLIYDASSRATGIPDRFSGSGSGTDFTLTISRLEPEDFAVYYCQQYGSLPWTFGQGTKVEIKRTVAAPSVFIFPPSDEQLKSGTASVVCLLNNFYPREAKVQWKVDNALQSGNSQESVTEQDSKDSTYSLSSTLTLSKADYEKHKVYACEVTHQGLSSPVTKSFNRGEC"
10.1,9.3,"bsAb050 (bispecific antibody, not shown: small tags and cut ends) heavy 1: EVQLVESGGGLVQPGGSLRLSCAASGFTFSRYWMSWVRQAPGKGLEWVANIKQDGSEKYYVDSVKGRFTISRDNAKNSLYLQMNSLRAEDTAVYYCAREGGWFGELAFDYWGQGTLVTVSSGGGGSGGGGSGGGGSGGGGSEIVLTQSPGTLSLSPGERATLSCRASQRVSSSYLAWYQQKPGQAPRLLIYDASSRATGIPDRFSGSGSGTDFTLTISRLEPEDFAVYYCQQYGSLPWTFGQGTKVEIKGGGGSGGGGSGGGGSGGGGSQVQLVQSGAEVKKPGASVKLSCKASGYIFTRYYMYWVKQRPGQGLEWIGEINPNNGGTKFNEKFKNRATLTVDKSISTAYMELSRLRSDDTAVYYCSREDDYDGTPFAMDYWGQGTLVTVSS heavy 2: QVQLVQSGAEVKKPGASVKLSCKASGYIFTRYYMYWVKQRPGQGLEWIGEINPNNGGTKFNEKFKNRATLTVDKSISTAYMELSRLRSDDTAVYYCSREDDYDGTPFAMDYWGQGTLVTVSS light: not shown"
2.9,11.8,"bsAb055 (bispecific antibody, not shown: a dimerising Fc or GST; small tags and cut ends) heavy 1: GGGGSGGGGSGGGGSGGGGSEVQLVESGGGLVQPGGSLRLSCAASGFTFSRYWMSWVRQAPGKGLEWVANIKQDGSEKYYVDSVKGRFTISRDNAKNSLYLQMNSLRAEDTAVYYCAREGGWFGELAFDYWGQGTLVTVSSGGGGSGGGGSGGGGSGGGGSEIVLTQSPGTLSLSPGERATLSCRASQRVSSSYLAWYQQKPGQAPRLLIYDASSRATGIPDRFSGSGSGTDFTLTISRLEPEDFAVYYCQQYGSLPWTFGQGTKVEIK heavy 2: QVQLVQSGAEVKKPGASVKLSCKASGYIFTRYYMYWVKQRPGQGLEWIGEINPNNGGTKFNEKFKNRATLTVDKSISTAYMELSRLRSDDTAVYYCSREDDYDGTPFAMDYWGQGTLVTVSS light: not shown"
1.5,2.3,"bsAb051 (bispecific antibody, not shown: small tags and cut ends; a dimerising Fc or GST) heavy (part 1 of 2): QVQLVQSGAEVKKPGASVKLSCKASGYIFTRYYMYWVKQRPGQGLEWIGEINPNNGGTKFNEKFKNRATLTVDKSISTAYMELSRLRSDDTAVYYCSREDDYDGTPFAMDYWGQGTLVTVSS heavy (part 2 of 2): GGGGSGGGGSGGGGSGGGGSEVQLVESGGGLVQPGGSLRLSCAASGFTFSRYWMSWVRQAPGKGLEWVANIKQDGSEKYYVDSVKGRFTISRDNAKNSLYLQMNSLRAEDTAVYYCAREGGWFGELAFDYWGQGTLVTVSSGGGGSGGGGSGGGGSGGGGSEIVLTQSPGTLSLSPGERATLSCRASQRVSSSYLAWYQQKPGQAPRLLIYDASSRATGIPDRFSGSGSGTDFTLTISRLEPEDFAVYYCQQYGSLPWTFGQGTKVEIK heavy: GGGGSGGGGSGGGGSGGGGSEVQLVESGGGLVQPGGSLRLSCAASGFTFSRYWMSWVRQAPGKGLEWVANIKQDGSEKYYVDSVKGRFTISRDNAKNSLYLQMNSLRAEDTAVYYCAREGGWFGELAFDYWGQGTLVTVSSGGGGSGGGGSGGGGSGGGGSEIVLTQSPGTLSLSPGERATLSCRASQRVSSSYLAWYQQKPGQAPRLLIYDASSRATGIPDRFSGSGSGTDFTLTISRLEPEDFAVYYCQQYGSLPWTFGQGTKVEIK light: not shown"
